Measured values published in the DeepSol protein solubility set.

Test: soluble on expression in E. coli; label from the status in PepcDB or PDB records

Sequence	soluble on expression in E. coli
TVEKSVVFKAEGEHFTDQKGNTIVGSGSGGTTKYFRIPAMCTTSKGTIVVFADARHNTASDQSFIDTAAARSTDGGKTWNKKIAIYNDRVNSKLSRVMDPTCIVANIQGRETILVMVGKWNNNDKTWGAYRDKAPDTDWDLVLYKSTDDGVTFSKVETNIHDIVTKNGTISAMLGGVGSGLQLNDGKLVFPVQMVRTKNITTVLNTSFIYSTDGITWSLPSGYCEGFGSENNIIEFNASLVNNIRNSGLRRSFETKDFGKTWTEFPPMDKKVDNRNHGVQGSTITIPSGNKLVAAHSSAQNKNNDYTRSDISLYAHNLYSGEVKLIDDFYPKVGNASGAGYSCLSYRKNVDKETLYVVYEANGSIEFQDLSRHLPVIKSYN	soluble
MSDTDYYRELEASEQRLSDSRAANRESIRTVEDKISDEREKHVARMSEKEKKHHENMLRLTNSSAAERKSAEEAHRKSVEQLKEKHKNETEKLETQIKEIKEKGEEDVRKVELQRANLEKQRTEALDIHLETMKELNEKKFEEIRQQRKEQNILNVEEMKALSTRNAIEHETQMGLIDDTQNMILSRESRQSSLTLIGHMMKSIESGDAISSLLQEMKTYCENRDQYSPTDIKIMKNISADIGKHRAKCDFQRQQLISKINLESNADPQVVDGCFEMSMKMKCCVESSDLRSVCTTLPLLAAQQEHARISGIINKIGSLTDNLDAINVEIKTKSIQWSRRITNALTNTTGN	not soluble
MGSDKIHHHHHHMVQTPSKPITLDEFLKLPETEPASEYIEGKIIQKPMPQGKHSAIQSECVSVINSVVKPQRIARAFLELRCTFGDHSTVPDISVFIWSRIPREENGEIANIFLIAPDWTIEILSPDQSQTKVTKNILHCLKHGTQMGWLIDPDEQTVFVYRPQQETEVFDEPDALVPVPSFASELHLSIKDLFSWLL	not soluble
TRDFMWRLGLNLTHYKNVVTDLPLKDMPVSGVHKLAVGRSVYDFYMKKWAGVDPENGDPLWYKNVKDANNKITGRTTTNDYAQADYYYTGKSSLPKVYGGFNTAFSYKGFELSTIFAYSIGNYIVDRDVTMLWHNGSSTGRAWSTEILNRWTPENRYTDVPALKTVSNSWNANSTRNLFNNSFLRMKNITLSYNFPQPMIKKISLNSLQLFVQADNLLTVSKNQGLDPEQDISGLTYYRYPAMRSISGGINVSF	not soluble
MGSDKIHHHHHHMIHTREEQMEAFGRFLDILDELRVKCPWDRKQTNESLRPNTIEETYELCDALMRDDKKDICKELGDVLLHVAFYAKIGSETGDFDIKDVCDKLCDKLIFRHPHVFGEVKAETAGQVSENWEQLKLKEKDGNKSVLSGVPSALPSLIKAYRIQDKARNVGFDWEEREQVWDKVKEEIREFQVEVANMDKEKAEAEFGDVMFSLINAARLYKINPDNALELTNQKFIRRFNYLEEHTIKEGKNLKDMSLEEMDAIWNEAKRKGL	not soluble
MGSDKIHHHHHHMLSHEEIVAIAEDLLSKRYGGVQTLSDVEQLNGSGTSAVLRARVANSPFLQQRSVVLKYVPSTGDVFDDSALVREIVSYQFTTSLSEDVRPGPVILAYDIDKRILVISDSGNGDTFADLIDQRTGDQRMQILRNLGQSLGSLHAATADREEDFNILLNRMLAKYPATAEMQKNRDRLLPAAIEVGKKILVDAGVTVPEVVEEFARVARRRLISGRHRAFTPFDLSPDNIIVAERTHFLDYEVAGFRDATFDVACVIAGFPQFVFSRPISDDEVDELIESWVQEVRGIWPNVNNEERLQARIVTALIGWALSSVAFMKLGSISGMLNLLHVTEDGNTTLDVSNLDELLIPRSAEDDELVQQDLHDTFSALQRFAARGLDSRFPEVARFADDVVRLFLKND	not soluble
MAHHHHHHMDVEHFIASLPPRTSVCGLHSVLSHASVHSLDSLGSTETPMLLTAQNFSFMSSGGDGDDNIGNAASTDSRATGAHGSGSNGSSHSGHHPTSPSPCGANASPFISKRLKYVIRSVALDHEECGGDSLSSRIASSYIGSSMPATNSQTRRRSERHVTFALEPEVLDARPRFSAYSRTVELLEQICLDKQSPWNALSLLQSALEERRGQLAQLRGQWDGALTGEAPTLTSSVTPKPCTITTSSGGGAVCHSRDKTTVPSPKSFPSATTSTLMTKGKSSRYSKVKPKACTTCSAM	not soluble
MTKTSKASGLSWFFCDLDGTLLRYQNNQHLIEPTTKRAVAQLVESGANFVVATGRKPSDVRNIYKELGIEQASPYLIANNGAVVWDLKRNSYLNKQTLSLSDFDLIDHINQTLNQLNHEYGCILYGLNDQVYFYHIHAPDSQAFKQYFAFYEGEFVQNQYLEIDGLKTEYNLVKAIWFFKEVHQQKAVIAQHFTNQERLVITSAHSFELVPLNVSKGHAINLIKQQVKITDNQIMVLGDSYNDLPMFQHGVVKVTNHLAPDNLKQLATRVYELPASLFVGQALNDYFKFD	not soluble
MRAPRWLWLVILLSGSAAADWREVLPNAQVVGGGELTLFGFRVYTARLLSPAKPFVADAPMALELTYHRNIDREDLVDASIDEIKRISGARVTTEQLAAWREQMNQSFVDVQPGMKITGVYLPGREARFYVGDKLQHVVPDSQFAKAFFSIWLDPKTRNPELREQLLGSTGS	not soluble
MGHHHHHHSHIGSFPLPKGITREWVERNLHTKEYEEMVQRAFLMKAKVLDVPTYPQFRDMIEMFMQPIKANQVEPYLIDERKAVIPELEYVEKMSVEAVRVCITGPFELYYREFGGVIYEDILLNLAESVRRFVENAAKHENVVCISIDEPSLGIAPDLQPDEELLQKALDYKVKQDVQIHLHEPLYYEKILETSVDVIGIECAKKPENMDFIDAEAVASAEKKLRIGVARSDIDGIIAEFNALHGVNAWGNEELISLAIDEIEPVEKIAERISKAKERFGDLLAYIGPDCGLFSFPSQELALQLLENVRKAVRE	not soluble
MSSYQQKQTFTPPPQLQQQQVKQPSQPPPQEIFVPTTKEPCHSKVPQPGNTKIPEPGCTKVPEPGCTKVPEPGCTKVPEPGCTKVPEPGCTKVPEPGYTKVPEPGSIKVPDQGFIKFPEPGAIKVPEQGYTKVPVPGYTKVPEPCPSTVTPGPAQQKTKQK	soluble
MGSDKIHHHHHHMESHVNILKSDVKIDPSRSPFMKERVEVMYEGDDLESILEQVKEIELGEMTFKVIFVKINDLEGENKIEYAERRIIERRIGDCIDAEADVRNPERTFGIVPLGGRWYFGHYVESKPVWYHHIKKPRSYSTSLSTRVARSVANIAVPNPEGVRAIDPCCGIGTVVVEALSMGINIVGRDISPLVAIGARENIAHFGFDGTITKGPIEEITENYDVAIIDMPYDLFTHATPENQLSILSSARRIAKKVVVVTMETMDDMIHEAGFEIIDRCTTKKGTFSRQILVCE	not soluble
MSLSAQGSQDGRFAGQLALVTGASRGIGAATAKALAAQGAHVVLVARTAKELEKVEEEIFEAGGSATIAPVDLSEPEGIARLATAISGRWSALDVLVINAAAFPTLTPVWQIDSREFNNALTLNVLATQALLAGFDGMLKKSKDARVIGVTSSVGATPRAYWGAYGASKAAFDVLLDCYAQEVRNTSAVRVAILDPGATRTKMRARAYPGENPESVKAPEVVAERMVALLGEQFSSPHRERVNQDEGHHHHHH	soluble
MGSDKIHHHHHHMSVQESVGGDVTGWWPSDNESLSPYPLYRERFCREGGLQPVFSGRTVLLPLRPGLLLSMREGQALTDLRGKREVGPAMHLEILFAAEGYSVVSGSTERYPFKPNTVSLQVTSSAVVAEFFIPAGAVIRSLAVRFSGLYLDHLASKGGFAALCSGGGDPLLLSRGVDLVMRPLSPALRPLASQILATEGATDGERLFLEAKILELISVVLSTPASGGGQSQTEPTKTALSRRDHKKIGQARELLIGDLDKTWKIKDLARHVGMNENKLKAGFRQIYDNSIYAYLQDWRMRAASHRLKQGEDSVTGVALSVGYSNPAHFAKVFRRYFGVSPSRYAEDGAPGPKKDNETY	not soluble
MGSDKIHHHHHHMIPLFDLTRQYERIRGEILNAIDKLISSGNVILGENVRRLEEEIASFTGVKHGVGVASGSDALLIALRAMGVEKGDTVVTTPYTFFATASAPYRLGARVIFVDVDESTFNMDLNQLEHVLKKEKVKAIIPVHLFGRTVDLEALSFLREKYGVMILEDCAQSMGSEWKFSSGEIRKSGSVGDAAIFSFFPTKNLGTYGDGGMIVTNSDEIAEESRILRVHGARKKYFHEKVGYNSRLDEIHAAILRVKLRYLERWTEERTRVARTYQKLFEEKKLPVVYPRVEEKGFRYHVFHQYVVLFENEEVRERVREGLKERGIQTAIYYPLPLHLQKCFRDLGYQEGDFPVAESLSKRSLALPMFPELRDDEIKEVVDTIALFL	not soluble
MAKERALTLEALRVMDAIDRRGSFAAAADELGRVPSALSYTMQKLEEELDVVLFDRSGHRTKFTNVGRMLLERGRVLLEAADKLTTDAEALARGWETHLTIVTEALVPTPAFFPLIDKLAAKANTQLAIITEVLAGAWERLEQGRADIVIAPDMHFRSSSEINSRKLYTLMNVYVAAPDHPIHQEPEPLSEVTRVKYRGIAVADTARERPVLTVQLLDKQPRLTVSTIEDKRQALLAGLGVATMPYPMVEKDIAEGRLRVVSPESTSEIDIIMAWRRDSMGEAKSWCLREIPKLFNGK	soluble
MSLEIVQEGIAKIIVPEIPKTVSSDMPVFYNPRMRVNRDLAVLGLEYLCKKLGRPVKVADPLSASGIRAIRFLLETSCVEKAYANDISSKAIEIMKENFKLNNIPEDRYEIHGMEANFFLRKEWGFGFDYVDLDPFGTPVPFIESVALSMKRGGILSLTATDTAPLSGTYPKTCMRRYMARPLRNEFKHEVGIRILIKKVIELAAQYDIAMIPIFAYSHLHYFKLFFVKERGVEKVDKLIEQFGYIQYCFNCMNREVVTDLYKFKEKCPHCGSKFHIGGPLWIGKLWDEEFTNFLYEEAQKREEIEKETKRILKLIKEESQLQTVGFYVLSKLAEKVKLPAQPPIRIAVKFFNGVRTHFVGDGFRTNLSFEEVMKKMEELKEKQKEFLEKEGHHHHHH	soluble
MRRAFLVNSDKCIGCRGCAMACKSFNQLEPDRFWRYVYPLDKDIYPHEERAFYSLACNHCEHPACVAACPVEAYTKREDGVVVHNPERCIGCKNCIRNCPYGAPRFNEETRKAEKCSMCYERLDIGMNPACVNACPVGALSIIDLDADPVPDNAVQYPPGFPHMPQLNPGTRFILARQPKQPEDK	not soluble
MQVISPSSPAPRFAGKERFSEVYGELNDDFGSKLKISSKEEENRDDDSWWNQNGTDKDDEGREEDFSFASVNADNSPITADEAFEDGQIRPVYPLFNRNIFFDDPEEKTLRSPLKKLFVESTTTEEEEEESDTVGPYCSWTNRTVEQASPETCRKSNSTGFSKLWRFRDLVLRSNSDGKDAFVFLSNGSSSTSSTSSTAARLSGVVKSSEKGKEKTKTDKKKDKMRTKSAHEKLYMRNRAMREEGKRRSYLPYKHVGFFTNVNGLTRNVHPY	soluble
MAYWLLKSEPQVYGIEDLEREGRAIWDGVRNYQARNYLMQMKEGDLCFFYHSGTTPPGIAGRCRVVRTLLPDPTQFDPESPYYDPKATPEKPRWYTVEVAFVEKWPLVPLAELKALFPPDHPLVKRGNRLSVMPVPPEVAEALIVRRGSR	soluble
MKVCLQCENFFSSADWACPSCGYQPERLNGIEAHASEFAHGGGGFKPEYFSELSRLEAGNFWFRARNELILWALRTYKPNAGAFLEVGCGTGFVLSGIARACPEIALNGSEIFLAGLFHAAKRVPSTHFMQMDARRVPFVEEFDAIGAFDVLEHIEEDETVLAQLHNAIKPSGVLLLTVPQHPRLWSASDDYACHVRRYTRVEIEQKVLTAGFELLRSSSFVTSLLPVMMLSRVLQKRKTKDFDPAGELKINAALNKVFYGLMMLELAGIRLGMNYPVGGSRLVVAKKQSALEHHHHHH	not soluble
